assay: soluble on expression in E. coli; label from the status in PepcDB or PDB records

Row | Sequence | soluble on expression in E. coli
1 | MSLREDLLEETRKSCQKKIDELEDALSELKKETSQKDHHIKQLEEDNNSNIEWYQNKIEALKKDYESVITSVDSKQTDIEKLQYKVKSLEKEIEEDKIRLHTYNVMDETINDDSLRKELEKSKINLTDAYSQIKEYKDLYETTSQSLQQTNSKLDESFKDFTNQIKNLTDEKTSLEDKISLLKEQMFNLNNELDLQKKGMEKEKADFKKRISILQNNNKEVEAVKSEYESKLSKIQNDLDQQTIYANTAQNNYEQELQKHADVSKTISELREQLHTYKGQVKTLNLSRDQLENALKENEKSWSSQKESLLEQLDLSNSRIEDLSSQNKLLYDQIQIYTAADKEVNNSTNGPGLNNILITLRRERDILDTKVTVAERDAKMLRQKISLMDVELQDARTKLDNSRVEKENHSSIIQQHDDIMEKLNQLNLLRESNITLRNELENNNNKKKELQSELDKLKQNVAPIESELTALKYSMQEKEQELKLAKEEVHRWKKRSQDILEKHEQLSSSDYEKLESEIENLKEELENKERQGAEAEEKFNRLRRQAQERLKTSKLSQDSLTEQVNSLRDAKNVLENSLSEANARIEELQNAKVAQGNNQLEAIRKLQEDAEKASRELQAKLEESTTSYESTINGLNEEITTLKEEIEKQRQIQQQLQATSANEQNDLSNIVESMKKSFEEDKIKFIKEKTQEVNEKILEAQERLNQPSNINMEEIKKKWESEHEQEVSQKIREAEEALKKRIRLPTEEKINKIIERKKEELEKEFEEKVEERIKSMEQSGEIDVVLRKQLEAKVQEKQKELENEYNKKLQEELKDVPHSSHISDDERDKLRAEIESRLREEFNNELQAIKKKSFDEGKQQAMMKTTLLERKLAKMESQLSETKQSAESPPKSVNNVQNPLLGLPRKIEENSNSPFNPLLSGEKLLKLNSKSSSGGFNPFTSPSPNKHLQNDNDKRESLANKTDPPTHLEPSFNIPASREGHHHHHH | soluble
2 | MSLGNARMYEALRDYGDRFDTVGIFTFEVDETGTITETGTSISSMLPYIQKWPHIKWLLTIMNHGIANIFTALRNNENGAKDKFLTEIIRIMNKYPWCAGVDIDLERGGGYENKDAANALFRDIYNTVKSYDATKLVNICLPGMIGVQGSVGGENWCVYADLNDYCDTAAIMSYGMAWAGSAPGPVSPRDWLEGIYDYAVSVMSPDKIFMGLPAYGWNWRIHDTPENLGITYRGVSNTYYAAKYWMTGVYNFTGDAPPQPFIPIVAYWDDYNKVPWALPHVYDYMEGWDAVSWEYPLLKGVYNRRRYLTSYGKEQKAEFGTIYIDRNGVPDEYEGNVIITDEMTSLGDAQASAEYRFEIREAGYYDIAVQLCFPYWDKNAIIVSLDGISKTFSENRLWWPYWRRVCWLTLAKGVFLQEGTHAISISGGVPGVQFYGFRVCSGFSEYPFAGEASFMLSPRRFKDVNGVMVEPDRGFKLTFEMLRRKPDSALIWYEDFRDRNILPENYWTVLDGEWDVWQDPDSTENRPYSQLEGYGKLAWKYDGFSDIHIRARLAFPQNSSGRAGVFLGDIFCCLNYDTQRVELYQGNSLLGSYSTSFSKTVDADLRANPNMYTIEMRKRGNKVRVYSGAASTLRFTVNVTGGSGYVGYCSDNRTVCELLRLGDAWVYEPYERFDVELPDGNITSFGRLARTGVTWDDEFQVFSVNNDVEESITRSEDISMDYDFFHSQLLALSCGNDYEVKIILKDINIWISRLFLGDADGFSILYYQDVDSLVYWANEAAYRWKLRGIAIWSLGQEDMRLWEALPKQEGHHHHHH | soluble
3 | SNLYTERVLSVHHWNDTLFSFKTTRNPGLRFKTGQFVMIGLEVDGRPLMRAYSIASPNYEEHLEFFSIKVPDGPLTSRLQHLKEGDELMVSRKPTGTLVHDDLLPGKHLYLLSTGTGMAPFLSVIQDPETYERYEKVILVHGVRWVSELAYADFITKVLPEHEYFGDQVKEKLIYYPLVTREPFRNQGRQTDLMRSGKLFEDIGLPPMNPQDDRAMICGSPSMLEETSAVLDSFGLKISPRMGEPGDYLIERAFVEK | soluble
4 | MGSDKIHHHHHHMPKSKSQKNKLRPRDSKGRFTPLAKAKRTVVSRSRSRSRSASRGARQSRSVGRPMSRRNSVRSISTHTAKSPSLVLVISGSPSPRRRRPSTRRSSSRRSVVRSVSRGSKSRRSSSRGSVYGRTGRSRSSKRSRSRSRPRTRSGSRSSSRSRSGSRRSSRRRSRRRSSSKARGRRASTAKKTPAKRRSRSRSQQKVKRSMSRKG | not soluble
5 | MPAKDVQICPIAVDTTVFRSRTWDRLKFEIEYGLQRGTTANSYLISADKIALFDPPGESFTDNFVGTLIQRLDLNSLDYVILGHVNANRAHTLKLLLSLAPQATIICSNPAAQNLEKLLADAEVNNPIQVMKGNDHLDLGRGHELTFIPTPSPRYPGQLCTYDPRTEILFTDKLFGAHVCGDQVFDEGWTIYQEDRRYYFDCLLAPAAAQVSAALNKLEAYPAQTYAPSHGPLVRYGLRELTRNYQQWLEHHHHHH | soluble
6 | LNSVGQGEFGGAPFKRFLRGTRIVSGGKLKRMTREKAKQVTVAGVPMPRDAEPRHLLVNGATGTGKSVLLRELAYTGLLRGDRMVIVDPNGDMLSKFGRDKDIILNPYDQRTKGWSFFNEIRNDYDWQRYALSVVPRGKTDEAEEWASYGRLLLRETAKKLALIGTPSMRELFHWTTIATFDDLRGFLEGTLAESLFAGSNEASKALTSARFVLSDKLPEHVTMPDGDFSIRSWLEDPNGGNLFITWREDMGPALRPLISAWVDVVCTSILSLPEEPKRRLWLFIDELASLEKLASLADALTKGRKAGLRVVAGLQSTSQLDDVYGVKEAQTLRASFRSLVVLGGSRTDPKTNEDMSLSLGEHEVERDRYSKNTGKHHSTGRALERVRERVVMPAEIANLPDLTAYVGFAGNRPIAKVPLEIKQFANRQPAFVEGTI | soluble
7 | MDPVEAGDWIAGRPLQLVFLSGLNPVNKPAHNSIVNVFRNRTADKPPLHIRVVSGELDIPPKRETGSGKGILRREWPQKYLDKVPALIVVFIDLEWDHPSWEEKKTEAESKVASIRGSLRHGTKIALVLIQQKSTSISDNLAADRAHELCQACSLSSKQLFILPADNLLAPNTTNLQNFALKLELAFHELCQAFYQQRLKTIRSRNIPNNSPALVVRQQFKLAFLSELRQDTHTALRNYRLAYDQCRDTVEQWDGVDVFEWRSVVGLLNYKVQQGLLKTKNSVISTRGMCELCFLHSTALEAINQMRRHTTVFFSSSPGIYPTPHLASIELLLWKSKQCYQFAHLFERSVAGGLSALATLNPGTHLDQAASIYSAANTEIAALKRNAPQNVPYPSPDPLANSSSTVFFGQRPWRINHEGLATAEVEAAAVTAIIQRLVVNHEGVISLLSAALAQYQKYGCLRMKKKVMMEMANTCYANNEIQRALRFWGLVVKDNALPYSIRKDMMHRATWAAYAITSIQDYAVCCMQLMCPAYSEVLPSDCVKGLLDVLDGKPPGSPFPNDDISQEQLHTYQLQWQHVLQEHPAFVVQASKIAELFLETRVSFLDQQTVEQDSKVAVRVEIVSKIEQVIRLNDVSVHLKAKKFPPDANQTANDADCLIYDPIHLGSVEVSKSKPLQRVVLLDLKNAKQNWIVTVTKVTLDLGNAIRGNIEFDENALNRNCHVENIIGLEFLKIGVAKTSVKLESVEKVDCLIGEVTSTELTIRNTCKSSPIHGLQLDFKRKEQKHAEAAAVLFVEQDGTELKSEFSKSVCEQLGAGEMAKIPVMFSAQLVGDYVLQLELSYKISEDGILVTKSTMLEVGVTAKEPFTVTSTVMNMNGIPMTSILNNCDHILNASIQSAASIVISSVEFLMADVVTLCDTINGGSGKNLNDKVHSEEVICYSAVIRVLVKEDESETPLGRMSVEWRRAVPNSCPVRSVAPLCRIPVLACPISISSHIKTNPAIVRQPIEICFELKSHSKEAVEISTNFDLNDVFMFSGERKVTMTVLPGATRRVTVVVMALSAGRLNFPKISLKSPQISDQTLQQSLRTLPAAIFVLPKAKDLAPHP | not soluble
8 | MQTSLRAPTLEKVSSRPRGSRRRSRKTFTAKLTSPTFRRWSSTEKWTVASREIGSARKRFCSTRTPGAAIHSSNRSRSALRYDHIDHRALARKSPHLMPPTFIKEEIMDDELDEVKEEVVSVGEAALPTPKVELNMDHPEKDLIISISVYLGYTRTLQYHEIRLGRLMKITDRLELTGDHTLRDLKNAFSCPIDFSFSDDFSEKKPSFKDMAKNKWPSTMFFIHDTDESHVNVEFPRRLVERNFRRIACDTCKEASAHWMIVDHDNLLPNSPGYLCSSCYKEFCFDVNGNKVCQFKAVPYCDRKDIGDGRQFFTELDL | not soluble
9 | MGSDKIHHHHHHMQIESFKSLLPKYKCIFFDAFGVLKTYNGLLPGIENTFDYLKAQGQDYYIVTNDASRSPEQLADSYHKLGLFSITADKIISSGMITKEYIDLKVDGGIVAYLGTANSANYLVSDGIKMLPVSAIDDSNIGEVNALVLLDDEGFNWFHDLNKTVNLLRKRTIPAIVANTDNTYPLTKTDVAIAIGGVATMIESILGRRFIRFGKPDSQMFMFAYDMLRQKMEISKREILMVGDTLHTDILGGNKFGLDTALVLTGNTRIDDAETKIKSTGIVPTHICESAVIEL | not soluble
10 | MMSTLALVSLAIFGIAVVCAAPKPATVPVANEEDYLAALYGFEAPGSQFKGAPLQSKRHISPSYDVEIDAGNMRNLLDIGKRSAPMASDYGNQFQMYNRLIDAGKKKRSPAISPAYQFENAFGLSEALERAGRR | not soluble
11 | MAAARIPMSDNLPWKTWTPDDLAPPPAEFVPMAESEETIIEEVEPSLEQQLAQLQMQAHEQGYQAGIAEGRQQGHEQGYQEGLAQGLEQGLAEAKAQQAPIHARMQQLVSEFQTTLDALDSVIASRLMQMALEAARQVIGQTPTVDNSALIKQIQQLLQQEPLFSGKPQLRVHPDDLQRVDDMLGATLSLHGWRLRGDPTLHPGGCKVSADEGDLDASVATRWQELCRLAAPGVV | soluble
12 | MSSGLYSMEKKEFDKVLDLERVKPYGDTMNDGKVQLSFTLPLKNNERSAEAAKQIALKMGLEEPSVVMQQSLDEEFTFFVVYGNFVQSVNYNEIHVEAVNSEILSMEETDEYIKENIGRKIVVVGASTGTDAHTVGIDAIMNMKGYAGHYGLERYEMIDAYNLGSQVANEDFIKKAVELEADVLLVSQTVTQKNVHIQNMTHLIELLEAEGLRDRFVLLCGGPRINNEIAKELGYDAGFGPGRFADDVATFAVKTLNDRMNS | soluble
13 | MDSQKDFNLGDSSKGEKEGMQPSTGNNQFEPFEFLKKMIQPGRVMKRSKNNLSSNEVWSVCRAVIDEFKKEQNLMEVSAPVTVIGDVHGNFHDLYRALLARTEQDITDEQKSNFSTRQFVRDKYVFLGNYIDKGPRSIECICLLFAFKICFPQKYILLRGPHECPSVNSSEFLGVMETFSPNHFKKIHKKFNEAFSWMPLAAVVGQKILCVHGGISPRLTSWEDIRKIKRPLKDATEDPLATDLLFADTLDFDLIHIPTRKPKYEFNVIRNMSVMYNEAAVTQFCEKFNLKLIIRSHMKVPFGYRFFSEKRLITIFNSTGFQNESNYGAVLKIDGNAKITIISLLPQQSKAEVQEKAHHSDMTSECNTMSSKGP | not soluble
14 | SLGPPPGPPRVSPDPRAELDSTVLLTRSLLADTRQLAAQLRDKFPADGDHNLDSLPTLAMSAGALGALQLPGVLTRLRADLLSYLRHVQWLRRAGGSSLKTLEPELGTLQARLDRLLRRLQLLMSRLALPQPPPDPPAPPLAPPSSAWGGIRAAHAILGGLHLTLDWAVRGLLLLKTR | soluble
15 | MSLRKLLKKTLFSNIIILCLYLGILKCVNSHISNEIQKQNQTFDKENLESKNTQNLQKSKNPTSQLSKTILKEEFNFLPNDVEINWKGRVLVIGDIHGDLKSLITSLFLSGVINSNLDWIAKNTLLIQLGDVVDRGSHALQIYKLFNKLKSQAPSLGSKFVGLLGNHEVMNLCGQLHYVTDEDFQTYGGRDNRTFEWSKEGFVGKYLRTMKLAIRVNDSLYVHAGLLPKYAKLGLDKLDKLSNDLLEGDFCDFYSSLFFVEDGPLWTRDISLGEEEKACKLVDETLQILGLSRMVVGHTIQHDNRINIKCDNKLILADTGFSEAIYGKPCMLEILYHNDNPDPSNYKSFHPYSINELQVKSNPSKPNIKYIQVTSLFLDKTSTRDEGHHHHHH | soluble

From the DeepSol protein solubility set
